{"source": "paper PMC12279200", "about": "“Tumor‐Associated Glycan Exploits Adenosine Receptor 2A Signaling to Facilitate Immune Evasion” (Advanced Science, 2025)", "binders": {"B1": {"name": "translin‐associated factor‐X (TRAX), endogenous (natural protein, UniProt Q99598 1-290, looked up)", "chain": "MSNKEGSGGFRKRKHDNFPHNQRREGKDVNSSSPVMLAFKSFQQELDARHDKYERLVKLSRDITVESKRTIFLLHRITSAPDMEDILTESEIKLDGVRQKIFQVAQELSGEDMHQFHRAITTGLQEYVEAVSFQHFIKTRSLISMDEINKQLIFTTEDNGKENKTPSSDAQDKQFGTWRLRVTPVDYLLGVADLTGELMRMCINSVGNGDIDTPFEVSQFLRQVYDGFSFIGNTGPYEVSKKLYTLKQSLAKVENACYALKVRGSEIPKHMLADVFSVKTEMIDQEEGIS", "notes": "translin-associated factor X (TRAX), endogenous in human primary CD4+ T cells and in Jurkat cells; source: endogenous, human primary CD4+ T cell lysate; endogenous, Jurkat (Jurkat-vector) lysate"}, "B2": {"name": "recombinant TRAX (His‐tagged) (natural protein, UniProt Q99598 1-290, looked up)", "chain": "B1 chain", "notes": "translin-associated factor X (TRAX); source: Escherichia coli, His‐tagged recombinant protein"}, "B3": {"name": "FLAG‐tagged TRAX^(Q219A, Q223A) (natural protein, UniProt Q99598 1-290, looked up)", "chain": "B1 chain with Q219A, Q223A", "notes": "translin-associated factor X (TRAX) with Q219A and Q223A; also called mutTRAX‐FLAG; mutTRAX; source: Jurkat cells, lentivirus (Jurkat‐mutTRAX‐FLAG), in lysate"}, "B4": {"name": "adenosine receptor 2A (A2AR), endogenous (receptor, UniProt P29274 1-412, looked up)", "chain": "MPIMGSSVYITVELAIAVLAILGNVLVCWAVWLNSNLQNVTNYFVVSLAAADIAVGVLAIPFAITISTGFCAACHGCLFIACFVLVLTQSSIFSLLAIAIDRYIAIRIPLRYNGLVTGTRAKGIIAICWVLSFAIGLTPMLGWNNCGQPKEGKNHSQGCGEGQVACLFEDVVPMNYMVYFNFFACVLVPLLLMLGVYLRIFLAARRQLKQMESQPLPGERARSTLQKEVHAAKSLAIIVGLFALCWLPLHIINCFTFFCPDCSHAPLWLMYLAIVLSHTNSVVNPFIYAYRIREFRQTFRKIIRSHVLRQQEPFKAAGTSARVLAAHGSDGEQVSLRLNGHPPGVWANGSAPHPERRPNGYALGLVSGGSAQESQGNTGLPDVELLSHELKGVCPEPPGLDDPLAQDGAGVS", "notes": "adenosine receptor 2A (A2AR), endogenous in human primary CD4+ T cells and in Jurkat cells; also called A2a receptor; source: endogenous, human primary CD4+ T cell lysate; endogenous, Jurkat (Jurkat-vector and Jurkat-mutTRAX-FLAG) lysate"}}, "key": {"[1]": {"target": "B4", "test": "co-IP; Jurkat‐vector or Jurkat‐mutTRAX‐FLAG cells incubated with 30 µM GHCer or PBS at 37 °C for 1 h; immunoprecipitation with anti‐A2AR, anti‐TRAX or anti‐FLAG, western blot", "conditions": "partners not purified"}, "[2]": {"target": "B4", "test": "co-IP; human primary CD4+ T cells incubated with 30 µM GHCer or PBS at 37 °C for 1 h; immunoprecipitation with anti‐A2AR or anti‐TRAX, western blot with anti‐TRAX or anti‐A2AR", "conditions": "partners not purified"}, "[3]": {"target": "T1, full‐length recombinant A2AR protein (A2AR‐His, fragment A) (UniProt P29274 1-412)", "T1 construct": "adenosine receptor 2A (A2AR), full-length (fragment A); the printed end of fragment F (aa 412) fits the human protein; captured on beads by an anti-His antibody; also called full‐length N‐His‐A2AR; A2AR‐full length; source: Escherichia coli, His‐tagged recombinant protein; not shown: His, N-terminal, kept", "test": "Luminex bead-based assay; A2AR‐His full length or fragments captured on Luminex beads conjugated with anti‐His antibody; TRAX in solution, detected by antibody and PE-conjugated antibody; with PBS, 30 µM GHCer or 30 µM GH‐biotin; PBS with 1% BSA, 37 °C, 60 min; signals normalised to full‐length A2AR/PBS/TRAX", "conditions": "both partners purified"}, "[4]": {"target": "T2, A2AR fragment E (aa 291–393) (UniProt P29274 291-393)", "T2 construct": "adenosine receptor 2A (A2AR), C-terminal fragment E, aa 291–393; source: Escherichia coli, His‐tagged recombinant protein", "test": "Luminex bead-based assay; A2AR‐His full length or fragments captured on Luminex beads conjugated with anti‐His antibody; TRAX in solution, detected by antibody and PE-conjugated antibody; with PBS, 30 µM GHCer or 30 µM GH‐biotin; PBS with 1% BSA, 37 °C, 60 min; signals normalised to full‐length A2AR/PBS/TRAX", "conditions": "both partners purified"}, "[5]": {"target": "T3, A2AR fragment F (aa 291–412) (UniProt P29274 291-412)", "T3 construct": "adenosine receptor 2A (A2AR), C-terminal fragment F, aa 291–412; source: Escherichia coli, His‐tagged recombinant protein", "test": "Luminex bead-based assay; A2AR‐His full length or fragments captured on Luminex beads conjugated with anti‐His antibody; TRAX in solution, detected by antibody and PE-conjugated antibody; with PBS, 30 µM GHCer or 30 µM GH‐biotin; PBS with 1% BSA, 37 °C, 60 min; signals normalised to full‐length A2AR/PBS/TRAX", "conditions": "both partners purified"}, "[6]": {"target": "B1", "test": "co-IP; Jurkat‐vector or Jurkat‐mutTRAX‐FLAG cells incubated with 30 µM GHCer or PBS at 37 °C for 1 h; immunoprecipitation with anti‐A2AR, anti‐TRAX or anti‐FLAG, western blot", "conditions": "partners not purified"}, "[7]": {"target": "B3", "test": "co-IP; Jurkat‐vector or Jurkat‐mutTRAX‐FLAG cells incubated with 30 µM GHCer or PBS at 37 °C for 1 h; immunoprecipitation with anti‐A2AR, anti‐TRAX or anti‐FLAG, western blot", "conditions": "partners not purified"}, "[8]": {"target": "B1", "test": "co-IP; human primary CD4+ T cells incubated with 30 µM GHCer or PBS at 37 °C for 1 h; immunoprecipitation with anti‐A2AR or anti‐TRAX, western blot with anti‐TRAX or anti‐A2AR", "conditions": "partners not purified"}}, "note": "Where a chain is given by its changes, count along the chain named. In names and notes the source's numbering stands."}
{"binder": "B1", "values": [{"measurement": "fold TRAX co-precipitated with GHCer over PBS control", "setting": "[1]", "result": 2.3, "unit": "fold"}, {"measurement": "fold TRAX co-precipitated with GHCer over PBS control", "setting": "[2]", "result": 2.1, "unit": "fold"}]}
{"binder": "B2", "values": [{"measurement": "fold binding signal with 30 µM GHCer over PBS control", "setting": "[3]", "result": 1.6, "unit": "fold"}, {"measurement": "fold binding signal with GHCer over fragment A without GHCer", "setting": "[3]", "result": 1.5, "unit": "fold"}, {"measurement": "fold binding signal with GHCer over fragment A without GHCer", "setting": "[4]", "result": 2.3, "unit": "fold"}, {"measurement": "fold binding signal with GHCer over fragment A without GHCer", "setting": "[5]", "result": 1.8, "unit": "fold"}]}
{"binder": "B3", "values": [{"measurement": "fold co-precipitated by anti‐A2AR with GHCer over PBS control", "setting": "[1]", "result": 1, "unit": "fold"}]}
{"binder": "B4", "values": [{"measurement": "fold A2AR co-precipitated with GHCer over PBS control", "setting": "[6]", "result": 2, "unit": "fold"}, {"measurement": "fold co-precipitated by anti‐FLAG with GHCer over PBS control", "setting": "[7]", "result": 1.1, "unit": "fold"}, {"measurement": "fold A2AR co-precipitated with GHCer over PBS control", "setting": "[8]", "result": 1.8, "unit": "fold"}]}
